The source of these data is patent publication US20210032351A1 (XDCEXPLORER SHANGHAI, published 2021).

The target of experiment [1] is T1, human EGFRvIII protein on the surface of U87MG-hEGFRvIII cells (human, UniProt P00533 25-1210). Put plainly: cell-based or functional assay.
Experiment [2] deals with T2, wild-type EGFR protein on the surfaces of A431 tumor cells and normal human primary hepatocytes (human, UniProt P00533 25-1210).
T2 construct: whole, on cells; Same protein on two cell types; also called human epidermal growth factor receptor; her-1
Put plainly: FACS, A431 tumor cells. As for the experimental part:
(§1) The preparation of U87MG-EGFRvIII required for FACS detection is as described in the preparation of the immunogen B in example 1. Normal human primary hepatocytes are purchased from BioreclamationIVT, and A431 tumor cells are purchased from ATCC. The recovered hepatocytes are directly used for FACS detection, and the recovered U87MG-EGFRvIII and A431 cells are subjected to an expanded culture to 90% confluence in a T-75 cell culture flask; the medium is sucked out, and the cells are washed twice with a HBSS buffer (Hanks Balanced Salt Solution) (purchased from Invitrogen), and then treated with an enzyme-free cell dissociation solution (Versene solution: purchased from Life Technology) and collected. The cells are washed twice with the HBSS buffer and are counted, and then the cells are diluted with the HBSS buffer to 2×10⁶ cells/ml, added with 1% goat serum blocking solution, with the percentage being the mass percentage, and incubated on ice for 30 minutes, and then centrifugally washed twice with the HBSS buffer. The collected cells are resuspended to 2×10⁶ cells/mL with an FACS buffer (HBSS+2% FBS, with the percentage being the volume percentage), added to a 96-well FACS reaction plate at 100 μL/well, then added with 100 μL/well of the purified EGFRvIII antibody (samples to be tested) obtained in example 12, and incubated on ice for 2 hours. The plate is centrifugally washed twice with the FACS buffer, added with 100 μL/well of a 1:1000 diluted fluorescence (Alexa 488) labeled secondary antibody (purchased from Invitrogen), and incubated on ice for 1 hour. The plate is centrifugally washed 3 times with the FACS buffer, added with 100 μL/well of a fixing solution [4% (v/v) paraformaldehyde] to resuspend the cells, and centrifugally washed twice with the FACS buffer after 10 minutes. The cells are resuspended in 100 μL of the FACS buffer, and the results are detected and analyzed by FACS (FACS Calibur, purchased from BD). Data analysis is performed by using the software (CellQuest) to obtain the mean fluorescence intensity (MFI) of the cells. Data is further analyzed by using the software (GraphPad Prism5) to perform data fitting and calculate EC50.
In general terms: Flow cytometry measures light scatter and fluorescence of single cells or particles in a stream.

The target in experiment [3] is T2, wild-type EGFR protein on the surfaces …. Put plainly: FACS, MFI on A431 cells over MFI on normal primary hepatocytes. As for the experimental part: as §1
For experiment [4] the target is unchanged. Put plainly: FACS, normal human primary hepatocytes. As for the experimental part:
as §1

The target of experiment [5] is T1, human EGFRvIII protein on the surface …. Put plainly: FACS on U87MG-hEGFRvIII cells. How it is done:
The cells are washed twice with the HBSS buffer and are counted, and then the cells are diluted with the HBSS buffer to 2×10⁶ cells/ml, added with 1% goat serum blocking solution, with the percentage being the mass percentage, and incubated on ice for 30 minutes, and then centrifugally washed twice with the HBSS buffer. The collected cells are suspended to 2×10⁶ cells/mL with an FACS buffer (HBSS+1% BSA, with the percentage being the mass percentage), added to a 96-well FACS reaction plate at 100 μL/well, then added with 100 μL/well of the purified EGFRvIII antibody (samples to be tested) obtained in example 2, and incubated on ice for 2 hours. The plate is centrifugally washed twice with the FACS buffer, added with 100 μL/well of a fluorescence (Alexa 488) labeled secondary antibody (purchased from Invitrogen), and then incubated on ice for 1 hour. The plate is centrifugally washed 3 times with the FACS buffer, added with 100 μL/well of a fixing solution [4% (v/v) paraformaldehyde] for suspending the cells, and centrifugally washed twice with the FACS buffer after 10 minutes. The cells are suspended in 100 μL of the FACS buffer, and the results are detected and analyzed by FACS (FACS Calibur, purchased from BD). Data analysis is performed by using the software (CellQuest) to obtain the mean fluorescence intensity (MFI) of the cells. Data is further analyzed by using the software (GraphPad Prism5) to perform data fitting and calculate EC50. […] A431 cells (human epidermal cell cancer cell lines) have a large amount of wild-type EGFR protein expressed on the surface thereof. […] U87MG cells (human glioma cell lines) have a small amount of wild-type EGFR protein expressed on the surface thereof, while HEB cells (human glioma cell lines) have a high level of wild-type EGFR protein expression on the surface thereof.

Experiment [6] addresses T3, human EGFRvIII-hFc protein (human, UniProt P00533 25-645).
T3 construct: extracellular domain; made in HEK293 cells, purified on protein A; also called immunogen A; hFc-tagged EGFRvIII protein; not shown: human IgG Fc fragment (hFc) of the pCpC vector
Put plainly: ELISA, coated EGFRvIII-hFc, antibody 10 nM. How it is done:
(§2) The purified immunogen A (EGFRvIII-hFc) obtained in example 1 (for the preparation method, see step (I) in example 1) is diluted with PBS to a final concentration of 1.0 μg/mL, and then added to a 96-well ELISA plate at 100 μl/well. The plate is sealed with a plastic film and incubated at 4° C. overnight. The next day, the plate is washed twice with a plate washing solution [PBS+0.01% (v/v) Tween20], and added with a blocking solution [PBS+0.01% (v/v) Tween20+1% (w/w) BSA] for blocking 2 hours at room temperature. The blocking solution is discarded, and the purified EGFRvIII antibody obtained in example 2 is added at 100 μl/well. The plate is incubated for 2 hours at 37° C., and then washed 3 times with the plate washing solution [PBS+0.01% (v/v) Tween20]. The plate is added with an HRP (horseradish peroxidase) labeled secondary antibody (purchased from Sigma), incubated at 37° C. for 2 hours, and then washed 3 times with the plate washing solution [PBS+0.01% (v/v) Tween20]. The plate is added with 100 μl of TMB substrate/well, incubated for 30 minutes at room temperature, and then added with 100 μl of stopping solution (1.0N HCl)/well. A450 nm value is read using an ELISA plate reader (SpectraMax 384plus, purchased from Molecular Device), and the results are shown in FIG. 6 and table 10.

The target in experiment [7] is T3, human EGFRvIII-hFc protein. Put plainly: ELISA, coated EGFRvIII-hFc, antibody 0.0001 nM. As for the experimental part: as §2
A general note: In an ELISA, binding on a coated surface is turned into a signal by an enzyme label.

For experiment [8], the target named is T3, human EGFRvIII-hFc protein. Put plainly: ELISA, coated EGFRvIII-hFc, antibody 1 nM. How it is done:
as §2

Experiment [9] deals with T3, human EGFRvIII-hFc protein. Put plainly: ELISA, coated EGFRvIII-hFc, antibody 0.01 nM. As for the experimental part: as §2
Experiment [10] deals with T3, human EGFRvIII-hFc protein. Put plainly: ELISA, coated EGFRvIII-hFc, antibody 0.1 nM. As for the experimental part:
as §2

In experiment [11] the target is T3, human EGFRvIII-hFc protein. Put plainly: ELISA, coated EGFRvIII-hFc, antibody 100 nM. How it is done: as §2
Experiment [12] concerns the target T3, human EGFRvIII-hFc protein. Put plainly: ELISA, coated EGFRvIII-hFc, antibody 0.001 nM. How it is done: as §2

Where a chain is given by its changes, count along the chain named.

B1: Murine anti-75G7-MMAF (antibody, V domains shown)
VH: EVQLQQSGPELVKPGASVKIPCKASGYTFTDYNMDWVKQSHGKSLEWIGDINPNNGDTIYNQKFKGKATLTVDKSSSTAYMELRSLTSEDTAVYYCARGDYDGYYPVYYAMDYWGQGTSVTVSS
VL: ENVLTQSPAIMSASPGEKVTMTCRASSSVSSSYLHWYQQKSGASPKLWIFSTSNLAAGVPARFSGSGSGTSYSLTVSSVEAEDAATYYCQQYSGYPLTFGAGTKLELK
For B1, the “IC50, cell killing of U87MG-hEGFRvIII cells (CellTiter-Glo)” value (from here on “IC50, cell killing”) in experiment [1] stood at 0.27 nM.

B2: Humanized antibody h63A10A7-26 (antibody, human IgG1, V domains shown)
VH: QVQLVQSGAEVKKPGASVKVSCKASGYTFISFTMHWVKQRPGQGLEWIGYINPNSGYTKYNQKFKDKATLTRDTSTSTVYMELSSLRSEDTAVYYCTRGGGRGFAYWGQGTLVTVSS
VL: DILMTQSPSSLSASVGDRVTITCHASQDINSNIGWYQQKPGKSFKALIYHGTNLEDGVPSRFSGSGSGADFTLTISSLQPEDFATYYCVQYAQFPFTFGQGTKLEIK
notes: Human IgG1 constant region, human kappa constant region
As to B2, the results for the “mean fluorescence intensity (MFI)” value in experiment [2] and in experiment [4] were 6130 MFI and 435 MFI, respectively. Besides, the “Selective window (MFIA431/Hepatocytes)” value in [3] was 14.1 ratio.

B3: Humanized antibody h63A10A7-39 (antibody, human IgG1, V domains shown)
VH: B2 VH with K67R, A68V
VL: B2 VL with L3Q, Y36L, F71Y
notes: as for B2
As to B3, the “mean fluorescence intensity (MFI)” value was 1960 MFI in [2] and 261 MFI in experiment [4]. Also, the “Selective window (MFIA431/Hepatocytes)” value in experiment [3] was found to be 7.5 ratio.

B4: Humanized antibody h63A10A7-37 (antibody, human IgG1, V domains shown)
VH: B2 VH with I48M, L70M
VL: B2 VL with L3Q, Y36L, F71Y
notes: as for B2
B4: the “mean fluorescence intensity (MFI)” value in [2] is 1320 MFI; in [4] it was 265 MFI. Further, the “Selective window (MFIA431/Hepatocytes)” value in experiment [3] amounted to 5 ratio.

B5: Humanized antibody h63A10A7-38 (antibody, human IgG1, V domains shown)
VH: B2 VH with K38R, R40A
VL: B2 VL with L3Q, Y36L, F71Y
notes: as for B2
As to B5, the “mean fluorescence intensity (MFI)” value in experiment [2] was 1060 MFI; in experiment [4], 254 MFI. For the same molecule, the “Selective window (MFIA431/Hepatocytes)” value in experiment [3] stood at 4.2 ratio.

B6: Murine anti-63A10-MMAF (antibody, V domains shown)
VH: QVQLQQSGAELARPGASVKMSCKASGYTFISFTMHWVKQRPGQGLEWIGYINPNSGYTKYNQKFKDKATLTAGQSSSTAYMQLSSLTSEDSAVYYCTRGGGRGFAYWGQGTLVTVSA
VL: DILMTQSPSSMSVSLGDTVTITCHASQDINSNIGWLQQKPGKSFKALIYHGTNLEDGVPSRFSGSGSGADYSLTISSLESEDFADYYCVQYAQFPFTFGSGTKLEIK
As to B6, the “IC50, cell killing” value in experiment [1] worked out at 0.01 nM.

B7: Murine anti-64F1-MMAF (antibody, V domains shown)
VH: B6 VH with I30S, F32Y, V37A, N54S, G73D, Q74K, A92I, T97A
VL: QIVLTQSPAIMSASPGERVTMTCSASSSVSYMYWYQQKPGSSPRLLIYDTSNLASGVPVRFSGSGSGTSYSLTISRVEAEDAATYYCQQWSSYSLTFGAGTKLELK
For the molecule B7, the “IC50, cell killing” value in experiment [1] stood at 0.01 nM.

B8: Murine anti-43H6 (antibody, V domains shown)
VH: INAEYAGGPGLVKPSQSLSLTCTVTDYSITSDYAWNWIRQFPGNKLEWMGYISYSGNTNYNPSLKSRISITRDTSKNQFFLQLNSVTTEDTATYYCARLGRGFAYWGQGTLVTVSA
VL: B6 VL with T20S, K42T, A46G, T52R, A69E, Q93H, F96P, S100A, I106L
notes: Mouse hybridoma antibody; also called 43H6A1
Molecule B8 had a concentration giving a half-maximal response (EC50) in experiment [5] of 4 nM. This lies in the single-digit nanomolar range.

B9: Murine anti-64F1 (antibody, V domains shown)
VH: B6 VH with I30S, F32Y, V37A, N54S, G73D, Q74K, A92I, T97A
VL: B7 VL
notes: murine hybridoma antibody; also called 64F1F8
For the molecule B9, the OD450 nm came out at 3.76 in experiment [6]; 0.08 in experiment [7]; 3.51 in experiment [8]; 0.16 in [9]; 1 in [10]; 3.73 in experiment [11]. Also, the OD450 nm in [12] was found to be 0.09.

B10: Murine anti-63A10 (antibody, V domains shown)
VH: B6 VH
VL: B6 VL
notes: murine hybridoma antibody; also called 63A10A7
For the molecule B10, the OD450 nm in [6] turned out to be 3.76; in experiment [7], 0.08; in experiment [8], 3.42; in experiment [9], 0.17; in [10] it was 0.8; in [11] it was 3.71. The OD450 nm in experiment [12] turned out to be 0.09.

Usually EC50 stands for the concentration giving half of the maximal effect. A lower EC50 goes with a more potent agent.
